The values that follow come from US20060171935A1, “Protecting cell therapy for neurological disorders including Parkinson's disease” (priority 2005, published 2006).

Data set [1] relates to DJ-1 deficient dopamine neurons. Put plainly: 6-OHDA sensitivity of ES-derived dopamine neurons, 3H-dopamine uptake. Format: cell-based, murine. Conditions: 9 DIV, 72 h exposure. The source says:
(A) The SDIA coculture method. DJ-1 knockout or control heterozygous ES cells are cocultured with mouse stromal cells (MS5) in the absence of serum and leukemia inhibitory factor for 18 DIV. (B) DN production was quantified at 18 DIV by 3H-dopamine uptake assay. DJ-1-deficient ES cell cultures were defective relative to heterozygous control cultures. (C-D) Neuron production was quantified by immunohistochemical analysis as a percent of TuJ1-positive colonies that express TH (C) or GABA (D). Quantification of TH and GABA immunostaining was performed on all colonies in each of three independent wells. Colonies were scored as positive if any immunostained cells were present. *p≦0.05. […] (F) Kinetic analysis of DN differentiation in DJ-1-deficient cultures (clone 32, solid square) and heterozygous controls (open circle) as quantified by 3H-dopamine uptake assay. *p≦0.05. […] DNs were quantified by 3H-dopamine uptake assay. Data represent the means±SEM and were analyzed by ANOVA followed by Fisher's post-hoc test. *p≦0.05. […]
In Vivo Assays. […] Cell viability (as a percent of untreated control) was determined by MTT assay in triplicate (Fezoui et al. 2000). […] Reported values represent specific uptake from which non-specific uptake, determined in the presence of mazindol, was subtracted, and normalized for protein content (BCA kit, Pierce).

The subject of data set [2] is cerebellar granule cells. Put plainly: Parkin overexpression in kainate-treated cerebellar granule cells. Format: cell-based, mice. Particulars: 500 μM for 24 h. As for the experimental part:
Cerebellar granule neurons from P6 mice were purified and transfected essentially as described (Scheiffele et al., Neuroligin expressed in nonneuronal cells triggers presynaptic development in contacting axons. Cell, 101:657-69, 2000). Dissociated cortical neurons from E16.5 mice were prepared and cultured as described (Scheiffele et al., Neuroligin expressed in nonneuronal cells triggers presynaptic development in contacting axons. Cell, 101:657-69, 2000). Primary midbrain cultures were prepared from E13.5 mouse embryos, as described (Hynes et al., Induction of midbrain dopaminergic neurons by Sonic hedgehog. Neuron, 15:35-44, 1995). Cells were treated for 24 h with or without kainate (250 or 500 μM as indicated; Sigma) or MPP^+ (1 or 10 μM as indicated; Sigma), stained for 20 min with 0.5 μg/ml Hoechst 33342 (Sigma), and visualized by fluorescence microscopy. For granule cell assays, at least 100 cells in two 20× fields were scored in duplicate for GFP and/or Hoechst signal. […] Cells were washed, incubated for 1 h at room temperature with appropriately-labeled secondary antibodies, and visualized by fluorescence microscopy. For midbrain culture experiments, DAT-specific immunoreactivity (pixels), and cytoplasmic parkin and cyclin E immunoreactivity (mean pixel density), were quantified in triplicate, across nine fields of view, at 20× using Image software (Scion). […]

In data set [3] the test system is insulin. Put plainly: Aggregation suppression of DTT-reduced insulin B chains. Particulars: insulin 26 μM, 20 mM DTT, 25° C. Type of data set: biochemical. The protocol:
FIG. 22 illustrates that DJ-1 is a redox-dependent molecular chaperone. (A) Aggregation of CS was monitored at 43° C. after addition of either 0.8 μM CS alone (black), or along with 8.0 μM RNase A (purple), 0.5 μM DJ-1 (aqua), 2.0 μM DJ-1 (blue), 4.0 μM DJ-1 (red), or 2.0 μM Hsp27 (green). (B) Aggregation of 0.8 μM CS after 30 min at […] (unfilled bar) is inhibited by 4.0 μM WT DJ-1 (black bar) but not 4.0 μM L166P mutant DJ-1 (gray bar). Data are shown as the mean±SEM and were analyzed by ANOVA with Fisher's post-hoc test. *p<0.05. (C) Aggregation of insulin (26 μM) B chains induced by 20 mM DTT at 25° C. Insulin alone (black) or in the presence of 4.0 μM RNase A (purple), 0.5 μM DJ-1 (aqua), 2.0 μM DJ-1 (blue), 4.0 μM DJ-1 (red), or 2.0 μM Hsp27 (green). […] (gray bar). Further treatment of DTT-reduced DJ-1 with 10 mM H2O2 for 10 min at 4° C. leads to reactivation of CS suppression (hatched bar). Data are shown as the mean±SEM and were analyzed by ANOVA with Fisher's post-hoc test. *p<0.05.
CS aggregation was performed in 40 mM HEPES (pH 7.8), 20 mM potassium hydroxinde, 50 mM potassium chloride, and 10 mM ammonium sulfate, and monitored in a thermostat-controlled fluorescence spectrophotometer with excitation and emission wavelengths at 500 nm and slit widths at 2.5 nm. Insulin aggregation was performed as described (Giasson et al. 2000). […]

The target in data set [4] is T1, αSyn (Homo sapiens, UniProt P37840). The experiment in a line: αSyn protofibril formation in vitro. Type of data set: biochemical. Conditions: molar ratio 1:2 (DJ-1: αSyn), 2 h at 55° C.
Experimental: αSyn protofibril and fibril formation assays were performed essentially as described (Uversky et al.). Briefly, protofibrils were formed by incubation of 200 μM WT synuclein with 100 μM DJ-1 or control chaperone protein in PBS for 2 h at 55° C. Samples were mixed with SDS loading buffer and analyzed by SDS-PAGE and Western blotting using αSyn LB509 antibody (Zymed). Quantitation of high molecular weight αSyn was performed using NIH Image J. Integrated pixel intensity of high molecular weight synuclein for each sample was normalized to monomeric synuclein intensity. For fibril formation, αSyn and chaperone proteins (as described above) were incubated with shaking for 1 wk at 37° C. Fibril formation was assessed by Congo red (Conway et al. 2000b).
In data set [5] the target is T1, αSyn. The experiment in a line: αSyn Congo red-positive fibril formation in vitro. Type of data set: biochemical. Particulars: 200 μM αSyn, proteins 100 μM, 1 wk at 37° C.
Experimental: αSyn protofibril and fibril formation assays were performed essentially as described (Uversky et al.). […] For fibril formation, αSyn and chaperone proteins (as described above) were incubated with shaking for 1 wk at 37° C. Fibril formation was assessed by Congo red (Conway et al. 2000b).
In data set [6] the target is T2, citrate synthase (CS) (Sus scrofa, UniProt P00889).
T2 construct: purchased Sigma
T2 sequence (P00889 28-464): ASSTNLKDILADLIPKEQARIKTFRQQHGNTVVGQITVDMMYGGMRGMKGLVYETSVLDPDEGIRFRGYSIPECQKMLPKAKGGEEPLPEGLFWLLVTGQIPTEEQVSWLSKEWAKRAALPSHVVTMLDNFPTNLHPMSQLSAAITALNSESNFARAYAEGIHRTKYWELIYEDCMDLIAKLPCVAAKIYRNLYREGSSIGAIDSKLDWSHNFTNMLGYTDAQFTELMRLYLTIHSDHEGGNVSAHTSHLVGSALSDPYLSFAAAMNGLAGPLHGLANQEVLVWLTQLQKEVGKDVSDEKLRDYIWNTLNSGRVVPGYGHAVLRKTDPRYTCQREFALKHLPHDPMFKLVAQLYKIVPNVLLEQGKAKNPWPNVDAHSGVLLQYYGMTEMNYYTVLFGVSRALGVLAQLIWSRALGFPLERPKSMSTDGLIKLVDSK
The experiment in a line: Suppression of heat-induced aggregation of citrate synthase (chaperone assay). Particulars: 0.8 μM CS, 43° C. Format: biochemical. As for the experimental part:
To test the redox regulation of DJ-1, the inventors assayed chaperone activity in the CS aggregation assay in the presence or absence of the reducing agent DTT. […] (FIG. 22D). […] To further test whether redox regulation might govern DJ-1 chaperone activity, reactivation studies using reduced DJ-1 were performed. DTT-reduced DJ-1 was incubated with H2O2 (10 mM in aggregation buffer for 10 min at 4° C. followed by dialysis against aggregation buffer for 2 h), and subsequently chaperone activity was measured in the CS thermal aggregation assay. […] This was not an indirect effect of residual H2O2 on CS aggregation, as H2O2 treatment of CS increased aggregation (unpublished data).
CS aggregation was performed in 40 mM HEPES (pH 7.8), 20 mM potassium hydroxinde, 50 mM potassium chloride, and 10 mM ammonium sulfate, and monitored in a thermostat-controlled fluorescence spectrophotometer with excitation and emission wavelengths at 500 nm and slit widths at 2.5 nm. Insulin aggregation was performed as described (Giasson et al. 2000). CS, insulin, RNase A, and GST were obtained from Sigma; human Hsp27 was obtained from Stressgen.

On to `NCCc1cc(O)c(O)cc1O` [6-OHDA, 6-hydroxydopamine], for which the “sensitivity of DJ-1 deficient dopamine neurons to toxin” value in data set [1] was “increased sensitivity”. In the case of `C=C(C)[C@H]1CN[C@H](C(=O)O)[C@H]1CC(=O)O` [kainate], in data set [2], the “effect of toxin on cyclin E in granule cell cultures” value is listed as “led to the accumulation of cyclin E”. For the molecule “Hsp27: well-described small cytoplasmic chaperone, human Hsp27, from Stressgen; positive control [reference compound]”, the “aggregation suppression of reduced insulin” value in data set [3] is on record as “effectively inhibited”. Moreover, the “formation of soluble αSyn protofibrils” value in data set [4] is “failed to inhibit”. Consider glutathione S-transferase [GST], for which the “formation of soluble αSyn protofibrils” value in data set [4] was “failed to inhibit”. Also, in data set [5], the “formation of Congo red-positive αSyn fibrils” value was “did not”.

B1: RNase A: negative control protein, from Sigma (protein, UniProt P61823 27-150, looked up)
Ribonuclease pancreatic: KETAAAKFERQHMDSSTSAASSSNYCNQMMKSRNLTKDRCKPVNTFVHESLADVQAVCSQKNVACKNGQTNCYQSYSTMSITDCRETGSSKYPNCAYKTTQANKHIIVACEGNPYVPVHFDASV
Consider B1, for which the “suppression of heat-induced aggregation of CS (chaperone activity)” value in data set [6] is “failed to demonstrate chaperone activity”. In addition, in data set [3], the “aggregation suppression of reduced insulin” value is on record as “neither DJ-1 nor the negative control protein RNase A displayed chaperone activity”.
